The results in this text go back to patent US20190127480A1 (Regeneron, published 2019).

B1: H1M2692N (antibody, mouse IgG1, V domains shown)
VH: EVQLVESGGGLVQPGGSLRLSCAASGFSFDDYTMHWVRQPPGKGLEWVSGISWNSGSIGYADSVKGRFTISRDNAKNSLYLQMNSLRAGDTALYYCAKDNSGYGYYYYYGMDVWGQGTTVTVSS
VL: EIVMTQSPATLSVSPGERATLSCRASQSVSSNLAWYQQKPGQAPRLLIYGASTRATGIPARFSGSGSGTEFTLTISSLQSEDFAVYYCQQYYNWPLTFGGGTKVEIK
notes: H1M: mouse IgG1 Fc, human variable regions; divalent
B2: H2M2708N (antibody, mouse IgG2, V domains shown)
VH: QVQLVESGGGVVQPGRSLRLSCAASGFTFRSFGMHWVRQAPGRGLEWVAMIYFDGKNKYYADSVRGRFTISRDNSKNTLYLEMSSLRAEDTAVYFCARGPGYNWLDPWGQGTLVTVSS
VL: B1 VL with A19V, V29I, S31R, I58V, Y86F, Y87H, Y92N, W94R, K103E
notes: H2M: mouse IgG2 Fc, human variable regions; divalent
B3: H1M2712N (antibody, mouse IgG1, V domains shown)
VH: EVQLVESGGGLVQPGGSLRLSCAATGFTFDDFTMHWVRQAPGKGLEWVSGISWNSGSIGYVDSVKGRFTISRDNAKNSLYLQMNSLRAEDTALYYCAKDNSGYGYYYYGMDVWGQGTTVTVSS
VL: B1 VL with Q27H, S31R, L33S, V85I, Y92N
notes: H1M: mouse IgG1 Fc; divalent
B4: H2M2777N (antibody, mouse IgG2, V domains shown)
VH: B2 VH with A23I, F32Y, R43K, F53Y, K56N, E82Q, S84N, E89D
VL: B1 VL with Y92N, W94R
notes: as for B2
B5: H2M2862N (antibody, mouse IgG2, V domains shown)
VH: B2 VH with F32Y, R43K, F53Y, K56N, Y59K, E82Q, S84N, A88V
VL: B1 VL with S31R, G57D, T72I, T74N, V85L, Y92S, K103E
notes: as for B2
B6: H2M2707N (antibody, mouse IgG2, V domains shown)
VH: B2 VH with A23I, F32Y, R43K, F53Y, K56N, E82Q, S84N, E89D
VL: B1 VL with Y92N, W94R
notes: as for B2
B7: H2M2886N (antibody, mouse IgG2, V domains shown)
VH: B2 VH
VL: B1 VL with A19V, T20I, V29I, S31R, S52T, I58V, Y86F, Y92N, W94R, K103E
notes: as for B2
B8: H2M2774N (antibody, mouse IgG2, V domains shown)
VH: B2 VH with A23V, F32Y, R43K, E46Q, F53Y, E82Q, S84N, V93M
VL: B1 VL with S28R, V29I, I58S, F83V, Y91H, Y92N
notes: as for B2
B9: H2M2710N (antibody, V domains shown)
VH: B2 VH
VL: B1 VL with S31R, I58V, Y86F, Y87H, Y92N, W94R, K103E
notes: as for B2
B10: H2M2706N (antibody, mouse IgG2, V domains shown)
VH: B2 VH with F32Y, G33A, R43K, I51V, F53Y, K56N, K58Q, E82Q, S84N, E89D
VL: B1 VL with S31R, E70D, Y92N, E105V
notes: as for B2
B11: H2M2711N (antibody, V domains shown)
VH: B2 VH
VL: B1 VL with S31R, I58V, Y86F, Y87H, Y92N, W94R, K103E
notes: as for B2
B12: H2M2775N (antibody, mouse IgG2, V domains shown)
VH: B2 VH
VL: B1 VL with A19V, T20I, V29I, S31R, S52T, I58V, Y86F, Y92N, W94R, K103E
notes: as for B2
B13: H2M2885N (antibody, mouse IgG2, V domains shown)
VH: B2 VH
VL: B1 VL with A19V, T20I, V29I, S31R, S52T, I58V, Y86F, Y92N, W94R, K103E
notes: as for B2
B14: H2M3547N (antibody, mouse IgG2, V domains shown)
VH: EAQLVESGGGLVQPGRSLRLSCTTSGFTFDDYTMHWVRQAPGKGLEWISDISWNGGTKGYADSVKGRFTISRDNAKNSLYLQMDSLRGEDTALYYCVKDKSGYGHFYFGLDVWGQGTTVTVSS
VL: DIQMTQSPSSLTASVGDRVTFTCRASQSISRHLSWYQQKPGKAPKLLIYAASSLESGVPSRFSGSGSGTDFTLTISSLHPEDFATYYCQQSYSNPPITFGQGTRLEIK
notes: as for B2
B15: H2M3541N (antibody, mouse IgG2, V domains shown)
VH: EVQLVESGGGLVRPGRSLRLSCAASGFTFDDYTMHWVRQAPGKGLEWVSDISWNSGTIGYADSVKGRFTISRDNAKNSLYLQMNSLRPEDTALYYCAKDMSGYAHYYYYGMDVWGQGTTVTVSS
VL: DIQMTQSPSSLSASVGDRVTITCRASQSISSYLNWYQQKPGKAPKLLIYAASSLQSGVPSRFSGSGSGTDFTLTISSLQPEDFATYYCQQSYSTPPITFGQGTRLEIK
notes: as for B2
B16: H2M3540N (antibody, mouse IgG2, V domains shown)
VH: QVHLEESGGGVVQPGRSLRLSCSASGFTFSSYAMHWVRQAPGKGLEWVAVIWYDGTNKYYLDSVKGRFTISRDNSKNTLFLQMNSLRAEDTAVYYCARDRGSIITHWGQGTLVTVSS
VL: DIQMTQSPSSLSASIGDRVTITCRASQNISSYLNWYQQKPGKAPKLLIYAASSLQSGVPSRFSGSGSGTDFTLTISSLQPEDFATYYCQQTYSTPPITFGQGTRLEIK
notes: as for B2
B17: H2M3563N (antibody, mouse IgG2, V domains shown)
VH: B15 VH with Q3H, R13Q, T57S, I70V, P88G, A104G, Y107G, Y108K
VL: B16 VL with I15V, N28S, S30R, A43V, S76N, E81D, T94N
notes: as for B2
B18: H2M3543N (antibody, mouse IgG2, V domains shown)
VH: B15 VH with R13Q, T57S, I70V, P88G, Y107G
VL: B16 VL with I15V, N28S, S30R, S31N, A43V, T91S, T94N
notes: as for B2

Numbering of substitutions follows the chain as printed.

T1 sequence (P07766 23-207 limits assumed, chain 1 of 2): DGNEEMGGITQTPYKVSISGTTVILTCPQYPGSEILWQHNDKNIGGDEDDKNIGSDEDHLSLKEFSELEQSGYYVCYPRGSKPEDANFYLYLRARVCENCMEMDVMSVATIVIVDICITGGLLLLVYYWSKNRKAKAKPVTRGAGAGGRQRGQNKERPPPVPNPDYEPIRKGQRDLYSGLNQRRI
T1 sequence (P04234 22-171 limits assumed, chain 2 of 2): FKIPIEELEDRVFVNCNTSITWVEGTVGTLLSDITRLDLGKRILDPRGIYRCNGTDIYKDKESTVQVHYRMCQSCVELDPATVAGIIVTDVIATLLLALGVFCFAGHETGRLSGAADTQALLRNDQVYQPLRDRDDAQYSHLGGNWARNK

One test addresses T1, human CD3 expressed on cells (Jurkat cells, a CD3+ human T-cell line; human PBMC T cells) (human, UniProt P07766 23-207; P04234 22-171).
T1 construct: Cell-surface CD3 within the T cell receptor complex
Nature of the test: FACS on Jurkat cells. The protocol: FACS data was acquired using the following protocol: Cells at 2×10⁵ per well were incubated with serially diluted antibodies for 30 min on ice. Post incubation, cells were washed and secondary antibody was added and incubated for an additional 30 minutes. After incubation, cells were washed, re-suspended in cold PBS containing 1% BSA and analyzed by flow cytometry with viable Jurkat cells gated by side and forward scatters. The EC₅₀s for cell binding titration were determined using Prism software with values calculated using a 4-parameter non-linear regression analysis.
Turning to B1, the EC50 was 5990 pM.

B2 had an EC50 of 658 pM.

B3 had an EC50 of 21900 pM.

For the molecule B4, the EC50 came to 2160 pM.

As for B5, the EC50 came to 7680 pM.

Consider B6, for which the concentration giving a half-maximal response (EC50) is 124000 pM.

With B7, the EC50 was 3970 pM.

As to B8, the EC50 was determined as 352 pM.

Regarding B9, a half-maximal response (EC50) required 710 pM.

As for B10, the EC50 was found to be 2370 pM.

Molecule B11 yielded an EC50 of 1160 pM.

On to B12, for which the EC50 stood at 1320 pM.

For B13, the EC50 turned out to be 2090 pM.

With B14, the midpoint of the response, the EC50, lay at 2710 pM.

In turn, B15 yielded an EC50 of 3700 pM.

The molecule B16 came in with an EC50 of 3990 pM.

In turn, B17 came in with an EC50 of 1070 pM.

B18: it took 5630 pM to reach a half-maximal effect (EC50).

Another test deals with T1, human CD3 expressed on cells (Jurkat …). The test is described as follows: cell-based or functional assay.
Regarding B1, the “EC50 [M] hPBMC Proliferation” value was found to be 1.42e-10 M.

In the case of B2, the “EC50 [M] hPBMC Proliferation” value came to 2.69e-08 M.

For the molecule B3, the “EC50 [M] hPBMC Proliferation” value was found to be 1.28e-10 M.

Turning to B4, the “EC50 [M] hPBMC Proliferation” value was 2.51e-11 M.

For B5, the “EC50 [M] hPBMC Proliferation” value was determined as 6.72e-13 M.

For the molecule B6, the “EC50 [M] hPBMC Proliferation” value was found to be 1.92e-12 M.

As for B7, the “EC50 [M] hPBMC Proliferation” value came out at 2.69e-12 M.

On to B8, for which the “EC50 [M] hPBMC Proliferation” value was found to be 4.92e-10 M.

On to B9, for which the “EC50 [M] hPBMC Proliferation” value is 2.11e-10 M.

For B10, the “EC50 [M] hPBMC Proliferation” value stood at 3.86e-12 M.

As for B11, the “EC50 [M] hPBMC Proliferation” value is 6.48e-10 M.

On to B12, for which the “EC50 [M] hPBMC Proliferation” value is 1.09e-09 M.

For the molecule B13, the “EC50 [M] hPBMC Proliferation” value was 2.49e-12 M.

In the case of B14, the “EC50 [M] hPBMC Proliferation” value is 5.02e-12 M.

With B15, the “EC50 [M] hPBMC Proliferation” value stood at 6.4e-12 M.

With B16, the “EC50 [M] hPBMC Proliferation” value is 3.16e-12 M.

For B17, the “EC50 [M] hPBMC Proliferation” value came out at 7.74e-12 M.

Turning to B18, the “EC50 [M] hPBMC Proliferation” value was 6.12e-12 M.

For another test, the target named is T2, Soluble heterodimeric CD3 protein (hCD3-epsilon/hCD3-delta) with either a human Fc tag (hFcΔAdp/hFc) or a … (human, UniProt P07766 23-126; P04234 22-105).
T2 construct: also called hCD3ε/δ; not shown: Fc tag: human (hFcΔAdp/hFc)
T2 sequence (P07766 23-126 limits assumed, stated change not applied, chain 1 of 2): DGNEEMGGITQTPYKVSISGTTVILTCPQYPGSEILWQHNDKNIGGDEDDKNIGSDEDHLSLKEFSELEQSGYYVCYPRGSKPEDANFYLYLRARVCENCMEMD
T2 sequence (P04234 22-105 limits assumed, stated change not applied, chain 2 of 2): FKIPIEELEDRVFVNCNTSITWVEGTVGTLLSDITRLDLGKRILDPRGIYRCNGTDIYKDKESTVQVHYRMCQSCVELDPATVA
Nature of the test: SPR Biacore 25C antigen-capture. In a few lines: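 Rate constants fitted to a 1:1 model, giving KD as kd/ka and dissociative half-life as ln2/(60·kd) minutes. Antibodies flowed over CD3ε/δ heterodimer captured on anti-human or anti-mouse Fc surfaces, run on a Biacore T200 at 25 °C.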
In the case of B1, the equilibrium dissociation constant (Kd) worked out at 238 pM, the “T½” value was found to be 1170 min, the koff turned out to be 9.9e-06 s⁻¹ and the on-rate constant (kon) was 41900 M⁻¹ s⁻¹.

Regarding B2, the Kd worked out at 131 pM, the “T½” value stood at 51 min, the koff came to 0.000227 s⁻¹ and the kon worked out at 1.73e+06 M⁻¹ s⁻¹.

Take B3: the affinity, expressed as Kd, was 295 pM; the “T½” value was determined as 846 min; the koff is 1.37e-05 s⁻¹; the on-rate (kon) turned out to be 47500 M⁻¹ s⁻¹.

B4: the Kd turned out to be 554 pM, the “T½” value was found to be 36 min, the koff was found to be 0.000321 s⁻¹ and the kon amounted to 580000 M⁻¹ s⁻¹.

Take B5: the Kd came out at 541 pM, the “T½” value was 36 min, the koff stood at 0.000321 s⁻¹ and the kon came out at 591000 M⁻¹ s⁻¹.

With B6, the Kd is 715 pM, the “T½” value turned out to be 41 min, the koff is 0.000285 s⁻¹ and the kon came to 399000 M⁻¹ s⁻¹.

For B7, the Kd turned out to be 95.6 pM, the “T½” value came out at 85 min, the koff stood at 0.000136 s⁻¹ and the kon turned out to be 1.42e+06 M⁻¹ s⁻¹.

As to B8, the affinity, expressed as Kd, was 135 pM; the “T½” value was 34 min; the koff was 0.000336 s⁻¹; the kon is 2.49e+06 M⁻¹ s⁻¹.

Turning to B9, the affinity, expressed as Kd, was 153 pM; the “T½” value worked out at 48 min; the koff came to 0.000243 s⁻¹; the kon was determined as 1.59e+06 M⁻¹ s⁻¹.

Consider B10, for which binding was characterised by a dissociation constant (Kd) of 544 pM, the “T½” value is 38 min, the koff was found to be 0.000306 s⁻¹ and the kon worked out at 563000 M⁻¹ s⁻¹.

For the molecule B11, binding was characterised by a dissociation constant (Kd) of 151 pM, the “T½” value is 48 min, the koff was 0.00024 s⁻¹ and the kon was found to be 1.59e+06 M⁻¹ s⁻¹.

In the case of B12, the Kd stood at 138 pM, the “T½” value came out at 53 min, the koff came to 0.000216 s⁻¹ and the kon came out at 1.56e+06 M⁻¹ s⁻¹.

Regarding B13, binding was characterised by a dissociation constant (Kd) of 111 pM, the “T½” value stood at 76 min, the koff was found to be 0.000152 s⁻¹ and the kon came to 1.37e+06 M⁻¹ s⁻¹.

As for B14, the Kd is at most 21.5 pM, the “T½” value came to 1160 min and the off-rate constant (koff) was at most 1e-05 s⁻¹.

Take B15: the Kd turned out to be 13800 pM, the “T½” value amounted to 10 min, the koff turned out to be 0.00116 s⁻¹ and the kon amounted to 84000 M⁻¹ s⁻¹.

As to B16, the Kd is 231 pM, the “T½” value was 20 min, the koff was determined as 0.000587 s⁻¹ and the kon is 2.55e+06 M⁻¹ s⁻¹.

As for B17, the Kd came to 77.3 pM, the “T½” value turned out to be 242 min, the koff stood at 4.77e-05 s⁻¹ and the kon came out at 616000 M⁻¹ s⁻¹.

With B18, binding was put at a Kd of 653 pM, the “T½” value turned out to be 145 min, the koff turned out to be 7.96e-05 s⁻¹ and the kon amounted to 122000 M⁻¹ s⁻¹.
